In IntAct's records for PubMed 29039417:

B1: Protein PTHB1 (Homo sapiens), Q3SYG4 (parent)
chain: MSLFKARDWWSTILGDKEEFDQGCLCLANVDNSGNGQDKIIVGSFMGYLRIFSPHPAKTGDGAQAEDLLLEVDLRDPVLQVEVGKFVSGTEMLHLAVLHSRKLCVYSVSGTLGNVEHGNQCQMKLMYEHNLQRTACNMTYGSFGGVKGRDLICIQSMDGMLMVFEQESYAFGRFLPGFLLPGPLAYSSRTDSFLTVSSCQQVESYKYQVLAFATDADKRQETEQQKLGSGKRLVVDWTLNIGEQALDICIVSFNQSASSVFVLGERNFFCLKDNGQIRFMKKLDWSPSCFLPYCSVSEGTINTLIGNHNNMLHIYQDVTLKWATQLPHIPVAVRVGCLHDLKGVIVTLSDDGHLQCSYLGTDPSLFQAPNVQSRELNYDELDVEMKELQKIIKDVNKSQGVWPMTEREDDLNVSVVVSPNFDSVSQATDVEVGTDLVPSVTVKVTLQNRVILQKAKLSVYVQPPLELTCDQFTFEFMTPDLTRTVSFSVYLKRSYTPSELEGNAVVSYSRPTDRNPDGIPRVIQCKFRLPLKLICLPGQPSKTASHKITIDTNKSPVSLLSLFPGFASQSDDDQVNVMGFHFLGGARITVLASKTSQRYRIQSEQFEDLWLITNELILRLQEYFEKQGVKDFACSFSGSIPLQEYFELIDHHFELRINGEKLEELLSERAVQFRAIQRRLLARFKDKTPAPLQHLDTLLDGTYKQVIALADAVEENQGNLFQSFTRLKSATHLVILLIALWQKLSADQVAILEAAFLPLQEDTQELGWEETVDAAISHLLKTCLSKSSKEQALNLNSQLNIPKDTSQLKKHITLLCDRLSKGGRLCLSTDAAAPQTMVMPGGCTTIPESDLEERSVEQDSTELFTNHRHLTAETPRPEVSPLQGVSE
partner: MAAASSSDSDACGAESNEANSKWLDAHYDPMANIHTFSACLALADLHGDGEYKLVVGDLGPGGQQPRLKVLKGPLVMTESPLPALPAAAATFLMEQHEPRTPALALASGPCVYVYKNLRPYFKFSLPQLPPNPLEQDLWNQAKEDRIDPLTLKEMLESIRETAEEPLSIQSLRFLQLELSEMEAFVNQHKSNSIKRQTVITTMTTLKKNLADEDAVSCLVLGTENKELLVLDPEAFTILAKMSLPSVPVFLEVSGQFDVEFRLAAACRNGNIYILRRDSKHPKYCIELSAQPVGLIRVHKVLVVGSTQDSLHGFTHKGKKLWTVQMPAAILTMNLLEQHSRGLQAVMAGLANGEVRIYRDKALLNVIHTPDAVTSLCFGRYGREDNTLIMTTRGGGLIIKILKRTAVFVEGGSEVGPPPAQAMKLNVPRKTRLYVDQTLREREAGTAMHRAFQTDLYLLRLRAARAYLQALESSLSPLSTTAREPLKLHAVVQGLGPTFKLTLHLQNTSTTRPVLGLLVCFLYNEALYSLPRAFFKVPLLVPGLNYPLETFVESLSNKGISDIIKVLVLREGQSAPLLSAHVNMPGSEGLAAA

Variants of: B1
Settings: with bbs1_human BBS1, Q8NFJ9

| Variant | effect of a mutation on the interaction |
| --- | --- |
| N448E | with no effect |
| S555E | with no effect |
| D470K | with no effect |
| S488E | with no effect |
| N553A | with no effect |
| Q447A | with no effect |
| V577A | with no effect |
| V505E | with no effect |
| P540K | with no effect |
| E408A | with no effect |
| D429K | with no effect |
| D410A | with no effect |
| D410K | with no effect |
| V424A | with no effect |
| Q524K | with no effect |
| G433K | with no effect |
| D571A | with no effect |
| A586E | with no effect |
| T482E | with no effect |
| S498A | with no effect |
| D422K | with no effect |

| Variant | effect of a mutation on the interaction |
| --- | --- |
| S603E | with no effect |
| R449E | with no effect |
| S425E | with no effect |
| P530E | with no effect |
| G579A | with no effect |
| G502K | with no effect |
| L481K | with no effect |
| V432A | with no effect |
| Q574K | with no effect |
| K542E | with no effect |
| D572A | with no effect |
| H581E | with no effect |
| F487E | with no effect |
| S507A | with no effect |
| K456A | with no effect |
| Y460A | with no effect |
| L533E | with no effect |
| L533K | with no effect |
| T543K | with no effect |
| F606A | with no effect |
| L436K | with no effect |

| Variant | effect of a mutation on the interaction |
| --- | --- |
| L436A | with no effect |
| V444A | with no effect |
| V444K | with no effect |
| G584A | with no effect |
| K492E | with no effect |
| R598S | disrupting interaction strength |
| V417E | with no effect |
| S458A | with no effect |
| R521T | disrupting interaction strength |
| T473A | with no effect |
| I548A | with no effect |
| L583E | with no effect |
| T405A | with no effect |
| P520E | with no effect |
| R528E | with no effect |
| T496A | with no effect |
| M477E | with no effect |
| L465A | with no effect |
| V575K | with no effect |
| F527K | with no effect |
| S414E | with no effect |

| Variant | effect of a mutation on the interaction |
| --- | --- |
| F582A | with no effect |
| F582K | with no effect |
| D409E | with no effect |
| S423A | with no effect |
| G538K | with no effect |
| L611A | with no effect |
| V413A | with no effect |
| E499A | with no effect |
| C535K | with no effect |
| D573A | with no effect |
| R600E | with no effect |
| P438A | with no effect |
| V590K | with no effect |
| V590A | with no effect |
| V489E | with no effect |
| V489K | with no effect |
| W610A | with no effect |
| F563A | with no effect |

Other lines, results leading:

| effect of a mutation on the interaction | Variant |
| --- | --- |
| disrupting interaction strength | L695M |
| with no effect | S635E |
| with no effect | K781E |
| disrupting interaction strength | L757I |
| with no effect | K821E |
| with no effect | R669A |
| with no effect | T697K |
| with no effect | F864A |
| with no effect | A792K |
| with no effect | W768E |
| with no effect | W768K |
| with no effect | V749K |
| with no effect | L662A |
| with no effect | S860E |
| with no effect | T725K |
| with no effect | S855A |
| with no effect | Q717K |
| with no effect | N796E |
| with no effect | Y645K |
| with no effect | L681A |
| with no effect | L870K |
| with no effect | L870A |
| with no effect | F653K |
| with no effect | E660A |
| with no effect | D859K |

| effect of a mutation on the interaction | Variant |
| --- | --- |
| disrupting interaction strength | L733A |
| disrupting interaction strength | T702C |
| with no effect | D773E |
| with no effect | Q722A |
| with no effect | L795E |
| with no effect | Y703A |
| with no effect | G841A |
| with no effect | I735A |
| with no effect | L808A |
| with no effect | D686A |
| with no effect | D686K |
| with no effect | C783E |
| with no effect | Q705K |
| with no effect | L616K |
| with no effect | N866A |
| with no effect | N866E |
| with no effect | R683A |
| with no effect | R683E |
| with no effect | F632K |
| with no effect | S820K |
| disrupting interaction strength | P691L |
| with no effect | A633E |
| with no effect | C816A |
| with no effect | C816K |
| with no effect | S797K |

| effect of a mutation on the interaction | Variant |
| --- | --- |
| with no effect | S797A |
| disrupting interaction strength | A690K |
| disrupting interaction strength | A690T |
| with no effect | R818K |
| with no effect | Q621A |
| with no effect | Q621E |
| with no effect | V713A |
| with no effect | V713K |
| with no effect | Q858E |
| with no effect | I617E |
| disrupting interaction strength | R674P |
| with no effect | L680E |
| with no effect | E878A |
| with no effect | E873A |
| with no effect | E873K |
| with no effect | A675K |
| with no effect | L819E |
| with no effect | Q791A |
| with no effect | P875E |
| disrupting interaction strength | L620F |
| with no effect | L620K |
| with no effect | H867K |
| with no effect | H867E |
| with no effect | H651A |
| with no effect | R679K |

| effect of a mutation on the interaction | Variant |
| --- | --- |
| disrupting interaction strength | R679W |
| with no effect | L784K |
| with no effect | L784E |
| with no effect | K687A |
| with no effect | M839A |
| with no effect | M839K |
| with no effect | F673A |
| with no effect | S788A |
| with no effect | R868E |
| with no effect | R868A |
| with no effect | E852A |
| with no effect | C826K |
| with no effect | L744A |
| with no effect | L744K |
| with no effect | K685E |
| with no effect | P689E |
| with no effect | P689K |
| with no effect | T771K |
| with no effect | T871K |
| with no effect | P877E |
| with no effect | R876E |
| with no effect | Q748A |
| with no effect | P847K |
| with no effect | H694E |
| with no effect | N614A |

Variants of: B1
Settings: with bbs1_human BBS1, Q8NFJ9
Remark: another data set of the same source

| effect of a mutation on the interaction | Variant |
| --- | --- |
| with no effect | A690K |
